Results as given in patent US20030194727.

How the values were obtained:
[1] = system: K5 mutant ZFP (VSSR-DGAV-VSSR-VDYK-Gal4AD) N80A (Asn DNA-contacting residue of finger 2, DGNV to DGAV; position counted in SEQ 225) (Artificial Sequence); experiment: EMSA; details: at least 10-fold decrease in DNA-binding affinity for expected site; no ketoconazole resistance in yeast
[2] = system: K5 ZFP (VSSR-DGNV-VSSR-VDYK-Gal4AD) (Artificial Sequence); experiment: EMSA; details: reference for the mutant comparison; binding of parent K5 implied by gel shift; exact probe not given, degenerate expected site
K5 ZFP (VSSR-DGNV-VSSR-VDYK-Gal4AD) (Artificial Sequence), sequence (chain, as listed by the source): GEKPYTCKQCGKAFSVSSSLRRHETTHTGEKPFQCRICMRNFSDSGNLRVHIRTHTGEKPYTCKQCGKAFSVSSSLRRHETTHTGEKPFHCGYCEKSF

K5 mutant ZFP (VSSR-DGAV-VSSR-VDYK-Gal4AD) N80A (Asn DNA-contacting residue of finger 2, DGNV to DGAV; position counted in SEQ 225) (Artificial Sequence), sequence (chain, as listed by the source N80A): as the sequence (chain, as listed by the source) above, with N47A counted along it

Sequence: KATGTDAACGTD (double strand) [K5 expected target site]
- binding signal [1]: < 0.1 fold of K5
- binding signal [2]: 1
